Experiments:
SARS-CoV-2 WT S-ECD蛋白 = SARS-CoV-2 WT S-ECD蛋白 (SARS-CoV-2, UniProt P0DTC2 14-1213)
SARS-CoV-2 Alpha株S-ECD蛋白 = SARS-CoV-2 Alpha株S-ECD蛋白 (SARS-CoV-2 Alpha株 (B.1.1.7))
SARS-CoV-2 Beta株S-ECD蛋白 = SARS-CoV-2 Beta株S-ECD蛋白 (SARS-CoV-2 Beta株 (B.1.351))
SARS-CoV-2 Gamma株S-ECD蛋白 = SARS-CoV-2 Gamma株S-ECD蛋白 (SARS-CoV-2 Gamma株 (P.1))
SARS-CoV-2 Delta株S-ECD蛋白 = SARS-CoV-2 Delta株S-ECD蛋白 (SARS-CoV-2 Delta株 (B.1.617.2))
SARS-CoV-2 Alpha株病毒的S蛋白 = SARS-CoV-2 Alpha株病毒的S蛋白 (SARS-CoV-2 Alpha株 (B.1.1.7)); test: cell-based or functional assay
SARS-CoV-2 Beta株病毒的S蛋白 = SARS-CoV-2 Beta株病毒的S蛋白 (SARS-CoV-2 Beta株 (B.1.351)); test: cell-based or functional assay
SARS-CoV-2 Gamma株病毒的S蛋白 = SARS-CoV-2 Gamma株病毒的S蛋白 (SARS-CoV-2 Gamma株 (P.1)); test: cell-based or functional assay
SARS-CoV-2 Delta株病毒的S蛋白 = SARS-CoV-2 Delta株病毒的S蛋白 (SARS-CoV-2 Delta株 (B.1.617.2)); test: cell-based or functional assay

B1: 全人源抗SARS-CoV-2单克隆抗体ZWD12 (antibody, V domains shown)
VH: EVQLVESGGGLVQPGGTLRLSCVASGFSFSNYWMSWVRQAPGKGLEWVANIKQDGSETHYVDSVKGRFTISRDNAKNSLYLQMNSLRADDTAVYFCVKDRTDWELIRGYFGHWGQGTQITVSS
VL: DIVMTQTPSSLSLSPGDRATLSCRASENIINYLAWYQQRPGQSPRLLIYDASNRATGIPARFSGSGSGTDFTLTISSLEPEDFAVYYCQQRIIWPPYTFGQGTKVDIKR
Q: For B1, which Kd (SARS-CoV-2 WT S-ECD蛋白) is on record?
A: Its Kd is 0.895 nM.

Q: What about the koff (SARS-CoV-2 WT S-ECD蛋白) of the same binder?
A: Its koff is 0.000121 s⁻¹.

Q: And the kon (SARS-CoV-2 WT S-ECD蛋白)?
A: The kon was 135000 M⁻¹ s⁻¹.

Q: And the Kd (SARS-CoV-2 Alpha株S-ECD蛋白)?
A: The Kd was 0.826 nM.

Q: What about the koff (SARS-CoV-2 Alpha株S-ECD蛋白) of the same binder?
A: Its koff is 0.000111 s⁻¹.

Q: What about the kon (SARS-CoV-2 Alpha株S-ECD蛋白) of the same binder?
A: The kon was 134000 M⁻¹ s⁻¹.

Q: What about the Kd (SARS-CoV-2 Beta株S-ECD蛋白) of the same binder?
A: The Kd was 0.991 nM.

Q: What about the koff (SARS-CoV-2 Beta株S-ECD蛋白) of the same binder?
A: Its koff is 0.000102 s⁻¹.

Q: And the kon (SARS-CoV-2 Beta株S-ECD蛋白)?
A: Its kon is 103000 M⁻¹ s⁻¹.

Q: And the Kd (SARS-CoV-2 Gamma株S-ECD蛋白)?
A: The Kd was 1.42 nM.

Q: And the koff (SARS-CoV-2 Gamma株S-ECD蛋白)?
A: Its koff is 0.000146 s⁻¹.

Q: What about the kon (SARS-CoV-2 Gamma株S-ECD蛋白) of the same binder?
A: The kon was 102000 M⁻¹ s⁻¹.

Q: And the Kd (SARS-CoV-2 Delta株S-ECD蛋白)?
A: The Kd was 1.91 nM.

Q: And the koff (SARS-CoV-2 Delta株S-ECD蛋白)?
A: Its koff is 0.000133 s⁻¹.

Q: What about the kon (SARS-CoV-2 Delta株S-ECD蛋白) of the same binder?
A: The kon was 69600 M⁻¹ s⁻¹.

Q: What about the “假病毒中和 EC50 (luciferase, HEK293T cells)” value (SARS-CoV-2 Alpha株病毒的S蛋白) of the same binder?
A: The value was 4.11 ng/mL.

Q: What about the “假病毒中和 EC50 (luciferase, HEK293T cells)” value (SARS-CoV-2 Beta株病毒的S蛋白) of the same binder?
A: Its value is 3.56 ng/mL.

Q: What about the “真病毒中和 EC50 (Vero E6 cells, crystal violet)” value (SARS-CoV-2 Beta株病毒的S蛋白) of the same binder?
A: The value was 69 ng/mL.

Q: And the “假病毒中和 EC50 (luciferase, HEK293T cells)” value (SARS-CoV-2 Gamma株病毒的S蛋白)?
A: Its value is 3.83 ng/mL.

Q: What about the “假病毒中和 EC50 (luciferase, HEK293T cells)” value (SARS-CoV-2 Delta株病毒的S蛋白) of the same binder?
A: Its value is 7.29 ng/mL.

Q: And the “真病毒中和 EC50 (Vero E6 cells, crystal violet)” value (SARS-CoV-2 Delta株病毒的S蛋白)?
A: Its value is 79 ng/mL.

— patent CN113735969A (INST MILITARY MEDICINE ACADEMY MILITARY SCIENCES PLA, dated 2021)
